Biological target: T1, transforming growth factor beta 1 (UniProt P01137 279-390)
T1 construct: Transforming growth factor beta 1 (TGFβ1), the mature growth factor cut from its precursor; The source of the TGFβ1 is told only for the cell assays (PeproTech); also called TGFβ1; TGFβ; source: bought: PeproTech (cell assays)
Assay: SPR; BIAcore 3000; which partner was immobilised and the conditions are not given
Settings: both partners purified

T1 sequence (P01137 279-390): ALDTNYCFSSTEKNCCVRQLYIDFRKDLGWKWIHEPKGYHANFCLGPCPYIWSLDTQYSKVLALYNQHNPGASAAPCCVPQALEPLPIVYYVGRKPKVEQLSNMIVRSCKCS

B1: Leucine-rich α2-glycoprotein (natural protein)
chain: LKECLILQSAEGSTVSCHGPTEFPSSLPADTVHLSVEFSNLTQLPAAALQGCPGLRELHLSSNRLQALSPELLAPVPRLRALDLTRNALRSLPPGLFSTSANLSTLVLRENQLREVSAQWLQGLDALGHLDLAENQLSSLPSGLLASLGALHTLDLGYNLLESLPEGLLRGPRRLQRLHLEGNRLQRLEDSLLAPQPFLRVLFLNDNQLVGVATGSFQGLQHLDMLDLSNNSLSSTPPGLWAFLGRPTRDMQDGFDISHNPWICDKNLADLCRWLVANRNKMFSQNDTRCAGPEAMKGQRLLDVAELGSL
With B1 the Kd was 2320 nM.
